Results reported in article PMC10641069, “Intra- and inter-molecular regulation by intrinsically-disordered regions governs PUF protein RNA binding” (Nature Communications, 2023).
Entries after “also recorded” stand apart in the source; their conditions may differ. Read-outs that look alike come from different tables or passages of the source.

Key:
FBF-2 RBD + CT = target: T1, FBF-2 RBD + CT (Caenorhabditis elegans, UniProt Q09312); experiment: ITC, peptide into FBF-2 RBD + CT, no RNA; assay type: binding, C. elegans; settings: mean of two independent replicates; 20 °C, 20 mM HEPES pH 7.4, 150 mM NaCl, 0.5 mM TCEP; one-site model
T1 construct: A cDNA fragment encoding C. elegans FBF-2 RBD + CT (residues 164-632) was cloned into the pSMT3 vector; His6-SUMO (N, cleaved yes); made in house; host or cells: E. coli BL21-CodonPlus (DE3)-RIL
T1 sequence (Q09312 whole entry, looked up): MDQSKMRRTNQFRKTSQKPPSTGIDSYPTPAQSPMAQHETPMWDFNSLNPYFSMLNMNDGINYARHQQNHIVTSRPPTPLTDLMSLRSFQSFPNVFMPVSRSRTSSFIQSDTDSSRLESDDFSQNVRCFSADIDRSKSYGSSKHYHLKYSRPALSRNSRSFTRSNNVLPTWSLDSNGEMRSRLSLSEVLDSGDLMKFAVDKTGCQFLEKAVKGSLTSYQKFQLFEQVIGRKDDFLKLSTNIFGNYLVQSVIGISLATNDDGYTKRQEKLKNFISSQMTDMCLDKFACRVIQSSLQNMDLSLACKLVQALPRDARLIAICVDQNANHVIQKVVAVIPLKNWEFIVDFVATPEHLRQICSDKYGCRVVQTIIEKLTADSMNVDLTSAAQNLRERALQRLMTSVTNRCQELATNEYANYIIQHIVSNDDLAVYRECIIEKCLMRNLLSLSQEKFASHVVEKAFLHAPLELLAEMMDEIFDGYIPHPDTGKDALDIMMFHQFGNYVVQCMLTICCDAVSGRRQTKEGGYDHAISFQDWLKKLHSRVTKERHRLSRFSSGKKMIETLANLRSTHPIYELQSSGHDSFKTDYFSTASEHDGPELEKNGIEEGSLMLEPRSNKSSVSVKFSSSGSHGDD

FBF-2 RBD + CT L610A = target: T2, FBF-2 RBD + CT L610A (Caenorhabditis elegans, UniProt Q09312, L610A); assay type: binding, C. elegans; settings: pH 7.4
T2 construct: A cDNA fragment encoding C. elegans FBF-2 RBD + CT (residues 164-632) was cloned into the pSMT3 vector; His6-SUMO (N, cleaved yes); made in house; host or cells: E. coli BL21-CodonPlus (DE3)-RIL (as for wild type)

FBF-2 RBD [1] = target: T3, FBF-2 RBD (Caenorhabditis elegans, UniProt Q09312); settings: reported previously, cited from earlier work
T3 construct: The FBF-2 RBD protein (residue 164-575) was purified as described previously; His6-SUMO (N, cleaved yes); made in house; host or cells: E. coli BL21-CodonPlus (DE3)-RIL (host inferred: b50 says the procedure was otherwise the same as for RBD + CT)
T3 sequence (Q09312 whole entry, looked up): T1 sequence (Q09312 whole entry, looked up)
Source text: Given that the core residues of three distinct PIMs—FBF-2 CT, LST-1 A, and LST-1 B—all bind to the same site of FBF-2, we hypothesized that the intramolecular FBF-2 CT binding could compete with LST-1 A and LST-1 B binding. To assess that idea, we investigated how the CT affects the protein interaction affinities of the FBF-2 RBD to LST-1 A and LST-1 B, using isothermal titration calorimetry (ITC, Supplementary Table 3). No RNA was included in these experiments. We first measured the binding affinity of an isolated CT peptide and the FBF-2 RBD (no CT), by titrating the peptide, FBF-2^601–632, ... || Fig. 2 The FBF-2 CT competes with partner proteins for binding to the RBD. Representative isothermal titration calorimetry thermograms (top, differential power [DP] vs time) and corresponding titration curve-fitting graphs (bottom) are shown for interaction between a FBF-2 RBD and FBF-2 CT, c FBF-2 RBD + CT and LST-1 A, d FBF-2 RBD + CT and LST-1 B, e FBF-2 RBD and FBF-2 CT L610A, f FBF-2 RBD + CT L610A and LST-1 A, and g FBF-2 RBD + CT L610A and LST-1 B. Data points on the curve-fitting graphs are shown as open circles. b Previously reported mean Kd from two independent replicates with simila ... || We next compared the protein interaction affinities of LST-1 A or LST-1 B with either FBF-2 RBD + CT or RBD alone (Fig. 2c–g, Supplementary Table 3). For these experiments, we titrated the LST-1 peptide into an ITC cell containing either RBD + CT or RBD.

gld-1 FBEa RNA = settings: LST-1 peptide with FBF-2 RBD (no CT); cited from earlier work
Source text: LST-1 is expressed in GSCs in response to signaling from the stem cell niche. The LST-1 protein is largely unstructured (Fig. 1b), including an N-terminal region that is sufficient for self-renewal of GSCs[22]. This LST-1 IDR region harbors two PUF Interacting Motifs (PIMs), LST-1 A and LST-1 B, that interact with FBF-2, each with a KxxL sequence[17],[22]. Crystal structures of FBF-2 bound to LST-1 A or B identify a seven-residue core region, including the KxxL sequence, that binds to FBF-2 with similar peptide backbone structure[17],[18]. The two LST-1 PIMs are biologically redundant for ... || If the FBF-2 CT reduces RNA-binding affinity (Fig. 3b) and competes with LST-1 for binding (Fig. 2c, d), why then does FBF-2 depend on LST-1 to repress RNAs in nematodes? To address this question, we explored RNA-binding affinities of FBF-2 RBD + CT in the presence of either LST-1 A or LST-1 B (Fig. 6; Supplementary Table 3). In contrast to results with FBF-2 RBD alone[17],[18], both LST-1 A and LST-1 B increased the RNA-binding affinity of FBF-2 RBD + CT.

FBF-2 RBD [2] = target: T3, FBF-2 RBD; assay type: binding, C. elegans; settings: mean of two independent replicates, 20 °C, 20 mM HEPES pH 7.4, 150 mM NaCl, 0.5 mM TCEP, one-site model
Description: To assess that idea, we investigated how the CT affects the protein interaction affinities of the FBF-2 RBD to LST-1 A and LST-1 B, using isothermal titration calorimetry (ITC, Supplementary Table 3). No RNA was included in these experiments.
Experiments were performed at 20 °C using a MicroCal PEAQ-ITC Automated (Malvern Instruments) with a 200-μL standard cell and a 40-μL titration syringe. FBF-2 and LST-1 variants were prepared in a buffer of 20 mM HEPES pH 7.4, 150 mM NaCl, and 0.5 mM TCEP by gel filtration. LST-1 (100–400 µM) was titrated from the syringe into the cell containing FBF-2 (10–30 µM) in 2 µl aliquots. Experiments were performed in duplicate due to the limitation of the amount of protein needed. Data were analyzed using the MicroCal PEAQ-ITC Analysis Software (version 1.40) provided by the manufacturer with the one-site model (Table S3).
Supplementary Table 3. Protein interaction affinities, stoichiometries, and thermodynamic parameters between FBF-2 CT/LST-1 variants and FBF-2 measured by ITC. Two technical replicates (n=2 independent experiments) were performed for each analysis with similar results, and the values are shown for each replicate. Source data are provided as a Source Data file. […]
RBD+CT LST-1 A none Not detected
RBD FBF-2 CT none Not detected
1 Reported previously 18.

[3] = target: T4, FBF-2 RBD (FBF-2 residues 164-575) (C. elegans, UniProt Q09312 164-575); experiment: ITC; peptide (100–400 µM) titrated from the syringe into the cell containing FBF-2 (10–30 µM); 20 °C; 20 mM HEPES pH 7.4, 150 mM NaCl, 0.5 mM TCEP; no RNA; one-site model; mean of two replicates; settings: both partners purified
T4 construct: The tag was cleaved with TEV protease; also called FBF-2^164–575; RBD alone; source: E. coli, purified (Ni-NTA, heparin, Superdex 75); not shown: His6-SUMO, N-terminal, cleaved
T4 sequence (looked up): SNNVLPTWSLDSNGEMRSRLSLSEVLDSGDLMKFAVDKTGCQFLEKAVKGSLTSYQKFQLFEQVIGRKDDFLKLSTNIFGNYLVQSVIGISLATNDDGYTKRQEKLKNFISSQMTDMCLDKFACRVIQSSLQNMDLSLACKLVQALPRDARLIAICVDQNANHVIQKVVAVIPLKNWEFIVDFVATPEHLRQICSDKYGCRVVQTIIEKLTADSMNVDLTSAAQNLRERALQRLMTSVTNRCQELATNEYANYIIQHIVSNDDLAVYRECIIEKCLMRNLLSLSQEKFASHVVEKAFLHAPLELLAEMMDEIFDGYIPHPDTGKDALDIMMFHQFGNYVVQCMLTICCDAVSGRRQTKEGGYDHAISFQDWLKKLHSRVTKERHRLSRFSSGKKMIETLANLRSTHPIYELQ

T2 sequence (Q09312 164-632 L610A): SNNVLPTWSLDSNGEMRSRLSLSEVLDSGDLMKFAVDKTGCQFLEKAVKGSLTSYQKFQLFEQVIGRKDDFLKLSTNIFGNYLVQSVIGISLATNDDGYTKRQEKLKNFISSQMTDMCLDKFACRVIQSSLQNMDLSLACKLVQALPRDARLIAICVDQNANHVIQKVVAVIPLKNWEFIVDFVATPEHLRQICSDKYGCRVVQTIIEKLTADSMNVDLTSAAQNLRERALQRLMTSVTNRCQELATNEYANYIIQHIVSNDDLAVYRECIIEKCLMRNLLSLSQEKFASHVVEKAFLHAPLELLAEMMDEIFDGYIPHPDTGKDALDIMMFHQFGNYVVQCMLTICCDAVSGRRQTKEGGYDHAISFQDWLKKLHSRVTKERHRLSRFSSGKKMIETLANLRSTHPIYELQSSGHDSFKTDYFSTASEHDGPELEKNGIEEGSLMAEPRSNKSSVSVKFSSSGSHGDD

**Q.** Which Kd (FBF-2 RBD + CT) does the source give for “LST-1 A: LST-1 A peptide, residues 19–50, expressed in E. coli (STIAYSKSQHEAPKQLLQLRSEIKPLIPLNQP; left off: His6-SUMO, N-terminal, cleaved)” here?
**A.** No binding; also recorded: too weak to be detected by ITC; also recorded: Not detected

**Q.** What about the “∆G” value (FBF-2 RBD + CT L610A) of the same molecule?
**A.** -31.9 kJ/mol

**Q.** What about the “-T∆S” value (FBF-2 RBD + CT L610A; replicate 1, 20 °C) of the same molecule?
**A.** 18.6 kJ/mol

**Q.** What about the “∆G” value (FBF-2 RBD + CT L610A; replicate 1, 20 °C) of the same molecule?
**A.** -31.4 kJ/mol

**Q.** And the “∆H” value (FBF-2 RBD + CT L610A; replicate 1, 20 °C)?
**A.** -50.0 kJ/mol

**Q.** And the “-T∆S” value (FBF-2 RBD + CT L610A; replicate 2, 20 °C)?
**A.** 19.8 kJ/mol

**Q.** And the “∆H” value (FBF-2 RBD + CT L610A; replicate 2, 20 °C)?
**A.** -51.7 kJ/mol

**Q.** What about the “-T∆S” value (FBF-2 RBD [1]; replicate 1) of the same molecule?
**A.** 25.4 kJ/mol

**Q.** And the “∆G” value (FBF-2 RBD [1]; replicate 1)?
**A.** -31.9 kJ/mol

**Q.** What about the “∆H” value (FBF-2 RBD [1]; replicate 1) of the same molecule?
**A.** -57.3 kJ/mol

**Q.** And the “-T∆S” value (FBF-2 RBD [1]; replicate 2)?
**A.** 25.1 kJ/mol

**Q.** What about the “∆G” value (FBF-2 RBD [1]; replicate 2) of the same molecule?
**A.** -32.0 kJ/mol

**Q.** And the “∆H” value (FBF-2 RBD [1]; replicate 2)?
**A.** -57.1 kJ/mol

**Q.** And the “effect on RNA-binding affinity of FBF-2 RBD” value (gld-1 FBEa RNA)?
**A.** no effect on RNA-binding affinity

**Q.** For “FBF-2 CT L610A: FBF-2 CT (601-632) with L610A (NGIEEGSLMAEPRSNKSSVSVKFSSSGSHGDD)”, which Kd (FBF-2 RBD [2]) is on record?
**A.** No binding; also recorded: Not detected

**Q.** What about the Kd (FBF-2 RBD [2]; listed as CT peptide with L610A) of the same molecule?
**A.** No binding was detected

B1: FBF-2 CT peptide (FBF-2 residues 601-632) (peptide, UniProt Q09312 601-632, looked up)
chain: NGIEEGSLMLEPRSNKSSVSVKFSSSGSHGDD
notes: holds the PIM SLMLEPR (607-613); The tag was cleaved with Ulp1 protease; also called FBF-2^601–632; source: E. coli BL21-CodonPlus (DE3)-RIL, purified (Ni-NTA, HiTrap Q flow-through, Superdex 75); not shown: His6-SUMO, N-terminal, cleaved
**Q.** For B1, which Kd [3] is on record?
**A.** 35 µM
